Measurements reported in US20110268668A1, “PROCESS FOR NEBULIZING AQUEOUS COMPOSITIONS CONTAINING HIGHLY CONCENTRATED INSULIN” (priority 1997, published 2011).
“And” between values parts separate entries of the source, which are not always exact repeats. Equal values may be shown once.

What was measured:
[1] = Inhalable proportion of RESPIMAT spray mist in Andersen impactor; assay type: physicochemical; details: immunological measurements
From the text: (§1) The effectiveness of a nebulizer can be tested using an in vitro system in which a protein solution is nebulized and the spray mist is caught in a so-called “trap” (see FIG. 1). The activity of the protein in the aerosol reservoir (a) is compared with its activity in the trapped liquid (b), e.g., by means of an immunoassay or using an assay for the biological effectiveness of the protein. This experiment makes it possible to evaluate the degree of destruction of the protein by the nebulizing process. A second parameter of the aerosol quality is the so-called inhalable proportion, which is defined here as the proportion of the mist droplets with a […] median aerodynamic diameter (MMAD) of less than 5.8 μm. The inhalable proportion can be measured using an “Andersen Impactor”. For good protein absorption it is important not only to achieve nebulization without any substantial loss of activity but also to generate an aerosol with a good inhalable proportion (about 60%). […] The effectiveness of a nebulization device can also be tested in an in vivo system; in this case factors such as susceptibility to lung proteases come into play. […] Blood samples arc taken at suitable time intervals and the protein level in the plasma is then measured by immunological or biological methods.
(§2) In three experiments, 84%, 77%, and 98%, of the immunologically identifiable interferon, based on the starting solution, were found in the trap solution (b). […] The proportion of particles less than 5.8 μm in size (“inhalable proportion”) was measured. […]
In this experiment, the reservoir (a) of the RESPIMAT® device was filled with 3.3 mg/mL of manganese superoxide dismutase (MnSOD) in phosphate-buffered saline (PBS). […] The precise amount nebulized was determined gravimetrically (measurements in three succeeding tests: 12.8, 13.7, and 14.3 mg). […] MnSOD was determined in the reservoir solution and in the solution caught in the trap, immunologically using an ELISA and enzymatically by the reduction in the quantity of superoxide after a xanthine/xanthine oxidase reaction. […]

[2] = tested on: encephalo-myocarditis virus infected A549 cells; assay: In vitro RESPIMAT nebulization, trap recovery of interferon omega by biological assay (inhibiting destruction of virus-infected cells); assay type: cell-based; details: same solutions
From the text: as §1
(§3) The device was activated and a volume of about 12.9 μL, (one puff) was nebulized in an air current of 28 l/min. […] Interferon omega was measured in the reservoir solution and in the solution caught in the trap by immunological methods, using an ELISA, and biologically, by inhibiting the destruction of encephalo-myocarditis virus infected A549 cells. […] However, additional biological measurements are very important as they are a particularly sensitive and therapeutically relevant method of quantifying protein destruction.
as §2

[3] = In vitro RESPIMAT nebulization, trap recovery of interferon omega by ELISA
From the text: as §1, §3, §2

[4] = tested on: neopterin; assay: In vivo test in dog: serum neopterin after interferon omega by RESPIMAT inhalation vs intravenous
Experimental: Interferon omega was administered by inhalation and intravenous route in separate experiments on the same dog. The blood levels of interferon were measured immunologically and biologically at different times. In addition, the neopterin level in the blood was measured. Neopterin is a marker for immune activation; it is released by macrophages after interferon stimulation [see Fuchs et al., “Neopterin, Biochemistry and Clinical Use as a Marker For Cellular Immune Reactions”, Int. Arch. Allergy Appl. Immunol. 101: 1-6 (1993)]. Measurement of the neopterin level serves to quantify interferon activity.
The administration of interferon to the dog was carried out under pentobarbital anesthetic after previous basic sedation. The animal was intubated and subjected to artificial ventilation (volume-controlled respiration: volume per minute 4 L/min, rate 10 breaths/min). A total of 20 puffs were delivered by the RESPIMAT® device. Each puff was given at the start of an inward breath. After the breathing in phase there were five seconds gap before breathing out. […] Interferon omega was measured in heparin plasma by immunological methods using an ELISA and by biological methods by the inhibition of the destruction of encephalo-myocarditis virus infected A549 cells. Serum neopterin was determined by immunology. […]

[5] = tested on: blood glucose level; assay: In vivo test in dog: blood glucose after inhaled highly concentrated insulin solution from RESPIMAT; details: anesthetized dog; six puffs of highly concentrated insulin solution from RESPIMAT; FIG. 5
Experimental: The insulin was administered to the dog anesthetized with pentobarbital after previously receiving basic sedation. The animal was intubated and ventilated as before. A total of six puffs of insulin solution were delivered from the RESPIMAT® device. Each puff was administered at the start of an inward breath. Between the breathing in phase and the breathing out phase there was a gap of 5 seconds. Before the next administration of insulin, two breath cycles were left with no intervention. Blood was taken one hour before administration, at the same time as administration and at various times thereafter over […]. The blood glucose level was measured in the fresh blood using the method of Trasch, Koller, and Tritscher (Klein. Chem. 30; 969 [1984]) using a REFLETRON® device made by Boehringer Mannheim.

[6] = Viscosity of aerosol preparation (Ostwald viscosimeter); assay type: physicochemical; details: aerosol preparation with about 35 mg/mL of insulin, pH 7.4
Experimental: Higher viscosity solutions of macromolecules with a viscosity of up to 1100×10^−6 Pa·s are preferred. With such solutions, an inhalable proportion of droplets containing an active substance of about 60% is obtained. The limiting viscosity numbers given were detected using an Ostwald viscosimeter using the method known from the literature. For comparison, the viscosity of water is 894×10^−6 Pa·s (measured at 25° C.).
The aerosol preparation thus produced has a concentration of about 35 mg/mL of insulin, the viscosity of the solution being about 1020×10^−6 Pa·s.

[7] = In vitro RESPIMAT nebulization, MnSOD enzymatic activity (reduction of superoxide after xanthine/xanthine oxidase reaction); assay type: biochemical; details: 3.3 mg/mL MnSOD in PBS
Experimental: In this experiment, the reservoir (a) of the RESPIMAT® device was filled with 3.3 mg/mL of manganese superoxide dismutase (MnSOD) in phosphate-buffered saline (PBS). The device was operated and a volume of about 13 μL (one puff) was nebulized in an air current of 28 L/min. The precise amount nebulized was determined gravimetrically (measurements in three succeeding tests: 12.8, 13.7, and 14.3 mg). The nebulized solution was caught in a trap (b). This trap contained 20 mL of PBS. In addition, 2 mL of 5% bovine serum albumin was added to stabilize proteins in the trap. MnSOD was determined in the reservoir solution and in the solution caught in the trap, immunologically using an ELISA and enzymatically by the reduction in the quantity of superoxide after a xanthine/xanthine oxidase reaction. In three tests, 78%, 89%, and 83% of the immunologically identifiable MnSOD of the nebulized solution were measured in the trapped solution (b). […] The inhalable proportion (immunological measurements) was 61%.

[8] = In vitro RESPIMAT nebulization, trap recovery of MnSOD by ELISA; details: 3.3 mg/mL MnSOD in PBS, one puff, 28 L/min, three tests
From the text: The effectiveness of a nebulizer can be tested using an in vitro system in which a protein solution is nebulized and the spray mist is caught in a so-called “trap” (see FIG. 1). The activity of the protein in the aerosol reservoir (a) is compared with its activity in the trapped liquid (b), e.g., by means of an immunoassay or using an assay for the biological effectiveness of the protein. This experiment makes it possible to evaluate the degree of destruction of the protein by the nebulizing process. A second parameter of the aerosol quality is the so-called inhalable proportion, which is defined here as the proportion of the mist droplets with a […] median aerodynamic diameter (MMAD) of less than 5.8 μm. The inhalable proportion can be measured using an “Andersen Impactor”. […] Blood samples arc taken at suitable time intervals and the protein level in the plasma is then measured by immunological or biological methods.
In this experiment, the reservoir (a) of the RESPIMAT® device was filled with 3.3 mg/mL of manganese superoxide dismutase (MnSOD) in phosphate-buffered saline (PBS). […] The precise amount nebulized was determined gravimetrically (measurements in three succeeding tests: 12.8, 13.7, and 14.3 mg). […] In three tests, 78%, 89%, and 83% of the immunologically identifiable MnSOD of the nebulized solution were measured in the trapped solution (b). […]

[9] = concentrated interferon omega solution 53 mg/mL, four tests

interferon omega
inhalable proportion (particles less than 5.8 μm) ([1]; 5 mg/mL interferon omega solution, Andersen impactor, 28 l/min): 70% | inhalable proportion ([1]; interferon omega formulation with additional human serum albumin (0.5%)): 67% | biologically active interferon in the trapped solution ([2]; 5 mg/mL formulation with additional human serum albumin (0.5%)): 60% and 54% and 66% | recovery of the biologically identifiable interferon in the trapped solution ([2]; 5 mg/mL interferon omega in 50 mM trisodium citrate, 150 mM NaCl, pH 5.5, three experiments): 54% and 47% and 81% | recovery of the biologically identifiable interferon in the trapped solution [2, 9]: 95% and 98% and 61% and 83% | immunologically identifiable interferon found in the trap solution, based on the starting solution ([3]; 5 mg/mL formulation with additional human serum albumin (0.5%), three tests): 79% and 83% | immunologically identifiable interferon found in the trap solution, based on the starting solution ([3]; 5 mg/mL interferon omega in 50 mM trisodium citrate, 150 mM NaCl, pH 5.5, one puff, air current 28 l/min, ELISA, three experiments): 84% and 77% and 98% | immunologically identifiable interferon found in the trapped solution, based on the starting solution [3, 9]: 100% and 60% and 68% and 72% | neopterin levels after inhalation compared with intravenous administration of 0.32 mg of interferon ([4]; 20 puffs RESPIMAT, 5 mg/mL (about 1.28 mg) vs 0.32 mg i.v., FIG. 3): significantly higher and longer lasting levels | serum neopterin level after administration by inhalation ([4]; 20 puffs from RESPIMAT, 5 mg/mL solution (about 1.28 mg)): very high serum neopterin level

insulin
blood glucose level after administration of insulin by inhalation [5]: lowering of blood glucose level | viscosity of the solution [6]: about 1020 ×10^−6 Pa·s

B1: manganese superoxide dismutase (protein, UniProt P04179 25-222, looked up)
Superoxide dismutase [Mn], …: KHSLPDLPYDYGALEPHINAQIMQLHHSKHHAAYVNNLNVTEEKYQEALAKGDVTAQIALQPALKFNGGGHINHSIFWTNLSPNGGGEPKGELLEAIKRDFGSFDKFKEKLTAASVGVQGSGWGWLGFNKERGHLQIAACPNQDPLQGTTGLIPLLGIDVWEHAYYLQYKNVRPDYLKAIWNVINWENVTERYMACKK
notes: 3.3 mg/mL of manganese superoxide dismutase (MnSOD) in phosphate-buffered saline
inhalable proportion ([1]; 3.3 mg/mL MnSOD in PBS): 61% | loss in enzymatic activity after nebulization [7]: no measurable loss | immunologically identifiable MnSOD of the nebulized solution measured in the trapped solution [8]: 78% and 89% and 83%
